Experimental data taken from patent US10640563B2, “Anti-B7-H3 antibodies and antibody drug conjugates” (AbbVie Inc., priority 2016, dated 2020).

Assays:
[1] = target: T1, soluble ECD of human B7-H3 (Homo sapiens, UniProt Q5ZPR3); test: Biacore T200 SPR binding kinetics, mAb capture; details: Biacore T200, Fc capture of mAb, B7-H3 ECD as analyte, 1:1 binding model
T1 construct: His tag (6xHis) (C); made in house
T1 sequence (Q5ZPR3 with tags, fused parts or gaps): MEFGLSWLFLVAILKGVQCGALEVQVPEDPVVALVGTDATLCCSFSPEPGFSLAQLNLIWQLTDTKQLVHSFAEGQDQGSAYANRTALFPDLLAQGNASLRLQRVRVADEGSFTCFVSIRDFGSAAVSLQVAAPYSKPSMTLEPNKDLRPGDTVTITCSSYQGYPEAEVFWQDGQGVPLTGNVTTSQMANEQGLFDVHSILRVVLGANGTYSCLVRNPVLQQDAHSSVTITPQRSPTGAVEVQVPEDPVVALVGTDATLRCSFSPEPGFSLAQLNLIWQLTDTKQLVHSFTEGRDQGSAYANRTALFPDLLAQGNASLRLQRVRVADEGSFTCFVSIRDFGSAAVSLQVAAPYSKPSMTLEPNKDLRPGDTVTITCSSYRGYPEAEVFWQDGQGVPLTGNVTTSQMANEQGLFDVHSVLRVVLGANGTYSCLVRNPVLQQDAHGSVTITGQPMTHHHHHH
Protocol: The binding affinity of the purified anti-B7-H3 monoclonal antibodies was determined by surface […]. […] The binding kinetics were derived from SPR measurements using a Biacore T200 instrument and a mAb capture approach (as described in the materials and methods below).
Biacore T200 SPR instruments were used to measure the binding kinetics of human B7-H3 (analyte) binding to various mAbs (ligands). The assay format was Fc-based capture via immobilized anti-mouse (Fc) (Pierce 31170) or immobilized anti-human (Fc) (Pierce 31125). A standard amine coupling protocol was employed to immobilize the capture reagents via primary amines to the carboxy-methyl (CM) dextran surface of CM5 sensorchips (Biacore); capture antibodies were coupled to a level of approximately 5000 RU. For binding kinetic measurements the assay buffer was HBS-EP+ (Biacore): 10 mM Hepes, pH7.4, 150 mM NaCl, 3 mM EDTA, 0.05% polysorbate 20. During the assay, all measurements were referenced against the capture surface alone. Each assay cycle consisted of the following steps: 1) Capture of ligand to approximately 50 RU; 2) Analyte injection over both reference and test surface, 240 μL at 80 μL/min, after which the dissociation was monitored for 900 seconds at 80 μL/min; 3) Regeneration of capture surface with low pH glycine. For kinetic determinations analyte injections were 3-point, 9-fold dilution series of 900 nM, 100 nM and 11.11 nM, buffer only injections were included for secondary referencing. Data were processed and fit to a 1:1 binding model using Biacore T200 Evaluation Software to determine the binding kinetic rate constants, ka (on-rate) and kd (off-rate), and the equilibrium dissociation constant (affinity, KD).

[2] = test system: soluble ECD of cyno B7-H3; test: Biacore T200 SPR binding kinetics, mAb capture; parameters: species or system cynomolgus monkey; details: Biacore T200, Fc capture of mAb, B7-H3 ECD as analyte, 1:1 binding model
soluble ECD of cyno B7-H3, sequence (as listed by the source): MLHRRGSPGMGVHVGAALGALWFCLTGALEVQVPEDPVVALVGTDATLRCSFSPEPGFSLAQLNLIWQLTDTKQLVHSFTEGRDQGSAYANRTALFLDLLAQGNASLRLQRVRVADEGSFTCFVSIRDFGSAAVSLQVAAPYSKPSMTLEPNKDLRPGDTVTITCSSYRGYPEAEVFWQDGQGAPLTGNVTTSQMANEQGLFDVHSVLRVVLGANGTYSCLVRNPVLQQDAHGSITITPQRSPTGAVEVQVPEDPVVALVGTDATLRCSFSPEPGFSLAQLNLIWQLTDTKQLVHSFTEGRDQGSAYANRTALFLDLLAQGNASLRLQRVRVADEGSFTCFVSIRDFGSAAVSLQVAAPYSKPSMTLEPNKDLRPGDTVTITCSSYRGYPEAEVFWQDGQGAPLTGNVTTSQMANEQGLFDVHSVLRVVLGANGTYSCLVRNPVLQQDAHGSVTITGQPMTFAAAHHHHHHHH

[3] = target: T2, B7-H3 (Homo sapiens, UniProt Q5ZPR3); test: Pair-wise SPR binding assay for epitope grouping; details: simultaneous binding assay, 12° C.
T2 construct: His tag (6xHis) (C); made in house
T2 sequence (Q5ZPR3 with tags, fused parts or gaps): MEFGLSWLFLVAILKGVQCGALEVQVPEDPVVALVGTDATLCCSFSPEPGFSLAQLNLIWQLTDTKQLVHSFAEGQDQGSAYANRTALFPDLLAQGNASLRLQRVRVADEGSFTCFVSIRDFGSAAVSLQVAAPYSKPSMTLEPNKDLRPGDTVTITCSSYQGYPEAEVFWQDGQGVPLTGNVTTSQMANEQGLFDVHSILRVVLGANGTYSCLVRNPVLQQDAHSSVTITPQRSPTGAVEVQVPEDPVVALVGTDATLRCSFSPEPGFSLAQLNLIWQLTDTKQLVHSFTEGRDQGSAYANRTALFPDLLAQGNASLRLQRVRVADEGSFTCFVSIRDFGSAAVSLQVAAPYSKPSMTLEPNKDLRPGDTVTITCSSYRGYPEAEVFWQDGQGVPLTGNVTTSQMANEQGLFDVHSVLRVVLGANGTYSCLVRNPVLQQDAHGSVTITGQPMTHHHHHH
From the text: Pair-wise binding assays performed on Biacore T200 SPR instruments were used to determine the relative epitope grouping for the murine anti-B7-H3 mAbs as described in the methods below. […] Epitope groups are represented as individual ovals, some of which overlap with each other. Antibodies in different epitope groups can bind to B7-H3 simultaneously and likely bind to different epitopes while antibodies within a given epitope group cannot bind to B7-H3 simultaneously and likely bind to overlapping epitopes. The grouping information was derived from a simultaneous binding assay as described in materials and methods. Ab3, Ab4, Ab5, Abl 1, Ab12, and Ab8 groupings were ambiguous.
Pair-wise binding assays performed on Biacore T200 SPR instruments were used to determine the relative epitope grouping for a series of anti-B7-H3 mAbs. The assay format was Fc-based capture via immobilized anti-mouse(Fc) (Pierce 31170) or immobilized anti-human (Fc) (Pierce 31125). A standard amine coupling protocol was employed to immobilize the capture reagents via primary amines to the carboxy-methyl (CM) dextran surface of CM5 sensorchips (Biacore); capture antibodies were coupled to a level of approximately 2000 RU. Epitope grouping measurements were done at 12° C. (low temperature allows for grouping information on fast off-rate mAbs), the assay buffer was HBS-EP+(Biacore): 10 mM Hepes, pH7.4, 150 mM NaCl, 3 mM EDTA, 0.05% polysorbate 20. Each assay cycle consisted of the following steps in a four flowcell system: 1) separate test mAbs were captured in flowcells 2, 3 & 4 (flowcell 1 was reference, no test mAb); 2) all 4 flowcells were then blocked by injection with isotype control mAb or isotype mAb cocktail at 50 μg/mL; 3) all 4 flowcells were then injected with antigen or buffer only (buffer only is for double referencing, done for each mAb pair individually); 4) all 4 flowcells were then injected with 2nd test mAb at 10 μg/mL; 5) all 4 flowcells were then regenerated with glycine, pH1.5. The assay was done for each test mAb pair in reciprocal orientations. Simultaneous binding was evaluated examining the ratio of the 2nd test mAb response to the Ag response (RUmAb2/RUAg); if this ratio was equal to or greater than 0.2 the interaction was scored as a simultaneous binder. From this pair-wise binding assay data a “venn” style diagram was constructed manually to depict relative epitope groupings.

[4] = test system: NCI-H146 cells; test: In vivo xenograft model of small cell lung cancer (NCI-H146); parameters: species or system mice; details: 6 mg/kg/IP/QDx1
[5] = test system: HCC38 cell line; test: Cell cytotoxicity of ADCs in HCC38 cell line; format: cell-based; details: Table 14; CZ conjugates
Method in brief: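 Humanized anti-B7-H3 antibody (chAb18) variants conjugated to the Bcl-xL inhibitor synthon CZ and tested as ADCs for cytotoxicity in HCC38 cells.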

[6] = Aggregation of conjugates by SEC; format: physicochemical
[7] = test system: H847 cells; test: Cell cytotoxicity of ADCs in H847 cells; format: cell-based; details: Table 17; CZ conjugates; read-out: Cytotoxicity (H847 Cell line IC50)
From the text: These new anti-B7-H3 antibodies were further characterized for binding by SPR and conjugated to the Bcl-xLi synthon CZ and assessed for cell cytotoxicity (using the methods described in Example 7).

[8] = target: T2, B7-H3; test: Affinity of naked mAbs by SPR (Biacore); format: binding; details: Table 17
Protocol: The parental chAb18 from which the variants were derived was also tested as a comparator.

[9] = target: T3, mouse B7-H3 (Mus musculus, UniProt Q8VE98); test: FACS binding to mouse 3T12 fibroblasts expressing mouse B7-H3; details: purified mouse hybridoma mAb; cells expressing mouse B7-H3
T3 construct: expressed in transfected cells; host or cells: mouse 3T12 fibroblasts
T3 sequence (Q8VE98 29-316): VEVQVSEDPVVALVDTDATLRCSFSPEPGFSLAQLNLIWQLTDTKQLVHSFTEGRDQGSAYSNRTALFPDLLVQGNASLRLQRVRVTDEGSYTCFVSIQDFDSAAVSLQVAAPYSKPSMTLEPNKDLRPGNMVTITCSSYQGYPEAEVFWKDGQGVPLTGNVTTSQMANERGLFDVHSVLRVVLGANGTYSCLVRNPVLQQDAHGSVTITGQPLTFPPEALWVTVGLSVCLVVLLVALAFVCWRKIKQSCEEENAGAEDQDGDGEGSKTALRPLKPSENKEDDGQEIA

[10] = Table 17, CZ conjugates of huAb3v2 variants

B1: Ab8: murine anti-B7-H3 mAb (mouse hybridoma derived) (antibody, V domains shown)
VH: EVKLVESGGGLVKPGGSLKLSCAASGFTFSSYGMSWVRQTPEKRLEWVATISGGGNYTYCPDSVKGRFTISRDNAKNNLYLQMSSLRSEDTALYYCTRQRGYDYHYAMDFWGQGTSVTVSS
VL: DIQMTQSPASLSVSVGETVTITCRASENIYSNLAWHQQKQGKSPQLLVYAATNLADGVPSRFSGNGSDTQYSLKINSLQSEDFGSYFCQNFWGTSWTFGGGTKLEIK
[1]
  huB7-H3 ka: 58000 M⁻¹ s⁻¹
  huB7-H3 kd: 9.9e-05 s⁻¹
[2]
  cynoB7-H3 ka: 160000 M⁻¹ s⁻¹
  cynoB7-H3 kd: 0.00026 s⁻¹
[3]
  relative human B7-H3 epitope grouping: ambiguous

B2: huAb3v2-CZ (conjugate)
VH: EVQLVQSGAEVKKPGSSVKVSCKASGYTFSSYWMHWVRQAPGQGLEWIGLIHPDSGSTNYNEMFKNRATLTVDRSTSTAYMELSSLRSEDTAVYYCAGGGRLYFDYWGQGTTVTVSS
VL: DIVMTQSPLSLPVTPGEPASISCRSSQSLVHSNGDTYLRWYLQKPGQSPQLLIYKVSNRFSGVPDRFSGSGSGTDFTLKISRVEAEDVGVYYCSQSTHVPYTFGGGTKVEIK
[4]; Table 15
  TGD (%): 52%
  TGImax (%): 83%
[5]
  IC50: 0.13 nM
[6]; Table 14, CZ conjugates of Ab3 variants
  % agg by SEC: 10.1%
[7]
  IC50: 1.49 nM

B3: huAb3v2.3-CZ (conjugate)
VH: EVQLVQSGAEVKKPGSSVKVSCKASGYTFSSYWMHWVRQAPGQGLEWIGLIHPWSGSTNYNEMFKNRATLTVDRSTSTAYMELSSLRSEDTAVYYCAGGGRLYFDYWGQGTTVTVSS
VL: DIVMTQSPLSLPVTPGEPASISCRSSQSLVHSNQDTYLRWYLQKPGQSPQLLIYKVSNRFSGVPDRFSGSGSGTDFTLKISRVEAEDVGVYYCSQSTHVPYTFGGGTKVEIK
[8]
  Affinity of naked mAbs (Biacore, KD): Poor fit
[6]; [10]
  % agg by SEC: 1.5%

B4: huAb3v2.9-CZ (conjugate)
VH: EVQLVQSGAEVKKPGSSVKVSCKASGYTFSSYWMHWVRQAPGQGLEWIGLIHPISGSTNYNEMFKNRATLTVDRSTSTAYMELSSLRSEDTAVYYCAGGGRLYFDYWGQGTTVTVSS
VL: DIVMTQSPLSLPVTPGEPASISCRSSQSLVHSNQDTYLRWYLQKPGQSPQLLIYKVSNRFSGVPDRFSGSGSGTDFTLKISRVEAEDVGVYYCSQSTHVPYTFGGGTKVEIK
[8]
  Affinity of naked mAbs (Biacore, KD): Poor fit
[4]; Table 23
  TGD (%): 135%
  TGImax (%): 94%
[6]; [10]
  % agg by SEC: 4.3%
[7]
  IC50: 2.3 nM

B5: huAb3v2.2-CZ (conjugate)
VH: EVQLVQSGAEVKKPGSSVKVSCKASGYTFSSYWMHWVRQAPGQGLEWIGLIHPWSGSTNYNEMFKNRATLTVDRSTSTAYMELSSLRSEDTAVYYCAGGGRLYFDYWGQGTTVTVSS
VL: DIVMTQSPLSLPVTPGEPASISCRSSQSLVHSNRDTYLRWYLQKPGQSPQLLIYKVSNRFSGVPDRFSGSGSGTDFTLKISRVEAEDVGVYYCSQSTHVPYTFGGGTKVEIK
[8]
  Affinity of naked mAbs (Biacore, KD): Poor fit
[6]; [10]
  % agg by SEC: 1.8%
[7]
  IC50: 26.7 nM

B6: huAb3v2.8-CZ (conjugate)
VH: EVQLVQSGAEVKKPGSSVKVSCKASGYTFSSYWMHWVRQAPGQGLEWIGLIHPISGSTNYNEMFKNRATLTVDRSTSTAYMELSSLRSEDTAVYYCAGGGRLYFDYWGQGTTVTVSS
VL: DIVMTQSPLSLPVTPGEPASISCRSSQSLVHSNRDTYLRWYLQKPGQSPQLLIYKVSNRFSGVPDRFSGSGSGTDFTLKISRVEAEDVGVYYCSQSTHVPYTFGGGTKVEIK
[8]
  Affinity of naked mAbs (Biacore, KD): Poor fit
[6]; [10]
  % agg by SEC: 5.7%
[7]
  IC50: 2.36 nM

B7: Ab6 (antibody, V domains shown)
VH: QVQLQQSGAELMKPGASVKISCKATGYTFSRYWIEWVKQRPGHGLEWIGEILPGSGSTNYNEKFKGKATFTADTSSNTAYMQVSSLTSEDSAVHYCARRGYGYVPYALDYWGQGTSVTVSS
VL: EIQMTQTTSSLSASLGDRVTISCRASQDISNSLNWYQQKPDGTVNLLIYYTSRLYSGVPSRFSGSGSGTDYSLTISNLEQEDIATYFCQQGNTLPYTFGGGTKLEIK
[1]
  huB7-H3 ka: 12000 M⁻¹ s⁻¹
  huB7-H3 kd: 0.01 s⁻¹
[9]
  FACS Binding (EC50 nM) Mouse B7-H3: No binding
[2]
  cynoB7-H3 ka: 28000 M⁻¹ s⁻¹
  cynoB7-H3 kd: 0.012 s⁻¹

B8: Ab18: murine monoclonal Ab18 (antibody, V domains shown)
VH: QVQLQQSAAELARPGASVKMSCKASGYSFTSYTIHWVKQRPGQGLEWIGYINPNSRNTDYNQKFKDETTLTADRSSSTAYMQLISLTSEDSAVYYCARYSGSTPYWYFDVWGAGTTVTVSS
VL: QIVLTQSPAILSASPGEKVTMTCRASSSVSYMNWYQQKPGSSPKPWIYATSNLASGVPARFSVSVSGTSHSLTISRVEAEDAATYYCQQWSSNPLTFGAGTKLELK
[1]
  huB7-H3 ka: 210000 M⁻¹ s⁻¹
  huB7-H3 kd: 3.6e-05 s⁻¹
[9]
  FACS Binding (EC50 nM) Mouse B7-H3: No binding
[2]
  cynoB7-H3 ka: 240000 M⁻¹ s⁻¹
  cynoB7-H3 kd: 2.9e-05 s⁻¹
